Experimental data published in the supplement of paper PMC9170038.

Test system: MS2 coat protein
Test: apparent KD of MS2 coat protein; designed switch direction (-1 OFF switch, 1 ON switch): -1; higher = weaker reporter binding
Summary of the method: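 The apparent KD reported per design is the median over clusters of curve fits to normalised cluster fluorescence. The RNA switches were transcribed on Illumina chips by stalled E. coli RNA polymerase. SNAP-549-labelled MS2 coat protein was titrated from 0.7 or 1.5 nM, doubling up to 3 µM, in Tris-HCl pH 7.5 buffer containing KCl, MgCl2, BSA, DTT, tRNA and Tween-20, with no input, 200 uM small-molecule ligand, or an oligonucleotide input.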

[1] = Eterna round: R95, input ligand: microRNA oligo, concentration not stated
[2] = Eterna round: R95, input ligand: FMN 200 uM
[3] = Eterna round: R95, input ligand: none
[4] = input ligand: microRNA oligo, concentration not stated

Sequence | apparent KD of MS2 coat protein (input ligand: FMN 200 uM) [nM] | apparent KD of MS2 coat protein (input ligand: none) [nM] | apparent KD of MS2 coat protein [1] [nM] | other results
GGGUAGUGAGGAUAUCUUGGCAAACCCGAACCUGUCAGCCAAGAGAAGGCACUUGAGGAUCACCCAAGUACAGG [Raeratti] (Eterna round: R97, puzzle: Exclusion 4) | 88.7 | 26.8 |  | 
GGGUGACAUGAGGAUCACCCAUGUCAGGAUAUGAUACUAUGUACUUCGGUACAUAGUAUCAGAAGGGACAUCCC [Ex1-3: 16] (puzzle: Exclusion 1) |  |  | 41.8 | 
GGUACUAACACGAAAGUGUUAGUACUGUAGGUUUGUGUUACAUGAGGAUCACCCAUGUCCUCAUAAGCUCGUCUUGU [JL-sv3-2.22 mat747 mod] (puzzle: Sensor v3, turn-off variant 2) |  |  | 246 | apparent KD of MS2 coat protein [2]: 306 nM; apparent KD of MS2 coat protein [3]: 347 nM
GGUACUAUCACCUGAGUGGUAGUGCCAUAAGCUUGUGAUACAUGAGGAUCACCCAUGUCCUCAUUUGCUCGUCUUAU [JL-sv3-2.27 JL mod] (puzzle: Sensor v3, turn-off variant 2) |  |  | 394 | apparent KD of MS2 coat protein [2]: 486 nM
GGUAGAGAGCAGGAUAUCUUGGGUAAGUAUCGUAGAGAAGGGCUCACAUGAGGAUCACCCAUGUGGUCCAAGAU [JL Dibiri mod 05] (puzzle: Exclusion 6) |  |  | 14.2 | 
GGUCAACGUGUGAGGAUAUGUCAACCCUGUGGAAAGCAGAAGGCACAUGAGGAUCACCCAUGUAAUAAGAAAAC [Soasois] (Eterna round: R97, puzzle: Brourd's mod of Exclusion 4) | 29.9 | 262 |  | 
GGUCCACAUGAGGAUCACCCAUGUUAGGAUAUCUCGCCCGAGCCCAUAUGGGCCAGGCAGAGAAGGAAUGUGAA [Quertixees] (puzzle: Exclusion 1) |  |  | 18.8 | 
GGUCCACAUGAGGAUCACCCAUGUUAGGAUAUCUCGUCCGAGCAGUUAUGGGCCGGGCAGAGAAGGAAUGUGAA [Orbibibi] (puzzle: Exclusion 1) |  |  | 25.7 | 
GGUCGACAUGAGGAUCACCCAUGUCAGGAUAUCGUCACUGGAGCCUCGGCUCCAGUGACGAGAAGGGAUAUGAU [E1/17-A2] (Eterna round: R97, puzzle: Exclusion 1) | 41.9 | 43.9 |  | 
GGUCUGCGAGGAUAUACAUGAGGAUCACCCAUGUGCGAGAUACUAGUGAGGUCGAUUGGUAGAAGGCGCGGACA [Mat - Exclusion 3 - Mod of JL D84] (puzzle: Exclusion 3) |  |  | 90.4 | 
GGUGAAGCAGGAUAUGUAUCGAUAUACAUGAGGAUCACCCAUGUCAUGUUUGAAUCGCAUAUAGAAGGGCUUCACC [Exclusion 5 (FMN-MS2 slide)] (Eterna round: R97, puzzle: Exclusion 5) | 58.1 | 20.8 |  | 
GGUGAGCUAGGAUAUGCUUUGGGCACGCAUUCCUUCGAUAAACUUGAGGAUCACCCAAGUAGAAGGAGCUUGCC [salish99_ex2_r4_030] (Eterna round: R97, puzzle: Exclusion 2) | 18.1 | 12.9 |  | 
GGUGAGCUAGGAUAUGCUUUGGGCUCGCUUUCCUUCGAUAUACUUGAGGAUCACCCAAGUAGAAGGAGCUUGCC [salish99_ex2_r4_034] (Eterna round: R97, puzzle: Exclusion 2) | 11.1 | 11.2 |  | 
GGUGAGCUAGGAUAUGCUUUGGGCUCGCUUUCCUUCGAUUUACUUGAGGAUCACCCAAGUAGAAGGAGCUUGCC [salish99_ex2_r4_035] (Eterna round: R97, puzzle: Exclusion 2) | 13.5 | 12.9 |  | 
GGUGCGAGUGUGAGGAUAUGCUGGUCGUAAGAUCAGCAGAAGGCACAUGAGGAUCACCCAUGUGAAAACGUACC [Mat - Exclusion 4 - JL Mod - D75] (puzzle: Brourd's mod of Exclusion 4) |  |  | 18.8 | 
GGUGCGUUUGUGAGGAUAUGCUGGUCCUUGGUUCGGCAGAAGGCACAUGAGGAUCACCCAUGUGGUGUCGCACC [salish99_Bmod_Ex4_049] (puzzle: Brourd's mod of Exclusion 4) |  |  | 65.9 | 
GGUGGGCUAGGAUAUGCUUUGGGCAGGCAUUCCUUCGAUAAACUUGAGGAUCACCCAAGUAGAAGGAGCUUGCC [salish99_ex2_r4_025] (Eterna round: R97, puzzle: Exclusion 2) | 10.8 | 10.7 |  | 
GGUGUCGUCAGAAGACAUGAGGAUCACCCAUGUAAAUGCACUGAGGAUAUACGGGCGACCGGCGUGUAGAAGGUAGAGCACGAA [Ladivequ] (Eterna round: R96, puzzle: Exclusion NG 3) | 43 | 41.6 |  | apparent KD of MS2 coat protein [4]: 24.5 nM
GGUGUGCUAGGAUAUGCUUUGGGCUCGCUUACCUUCGUUUUACUUGAGGAUCACCCAAGUAGAAGGUGCUUGCC [salish99_ex2_r4_039] (Eterna round: R97, puzzle: Exclusion 2) | 13.1 | 12.4 |  | 

Sequence | apparent KD of MS2 coat protein (input ligand: FMN 200 uM) [nM] | apparent KD of MS2 coat protein (input ligand: none) [nM] | apparent KD of MS2 coat protein [1] [nM] | other results
GGUUACAAGCUAAGAUCCUACAUGAGGAUCACCCAUGUGGUCCGGUGACGUGAGUCACCGGACUUAGCUCGUCUUGU [salish99_S_TOV1_R5_002] (Eterna round: R97, puzzle: Sensor, turn-off variant 1) | 75.4 | 80 |  | 
GGUUCACGAGGAUAUCGAUUUUAGUACAUGAGGAUCACCCAUGUUGUCCAGGUUUCGAUUCGAGAAGGCGUGAACC [LRO-Ex5-04] (puzzle: Exclusion 5) |  |  | 20.8 | 
GGUUGACAUGAGGAUCACCCAUGUGAGGAUAUGCGAGAGAAAAAAGUGAGGAAGAAGAGCAGAAGGCGCUGUCG [salish99-ex1_r3_012] (puzzle: Exclusion 1) |  |  | 134 | apparent KD of MS2 coat protein [2]: 99.4 nM; apparent KD of MS2 coat protein [3]: 117 nM
GGUUGGCGAGGAUAUACAUGAGGAUCACCCAUGUGAAAAUAAAGUGAGGAAAAGAAAAGUAGAAGGCGCUGACG [Mat - Exclusion 3 - Mod of Salish D55] (puzzle: Exclusion 3) |  |  | 72.7 | apparent KD of MS2 coat protein [2]: 158 nM; apparent KD of MS2 coat protein [3]: 118 nM
GGUUGGCGAGGAUAUACAUGAGGAUCACCCAUGUGAGAGAAAAAAGUGAGGAAGAAAAGUAGAAGGCGCUGACA [salish99_ex3_r3_046] (puzzle: Exclusion 3) |  |  | 43.9 | apparent KD of MS2 coat protein [2]: 188 nM; apparent KD of MS2 coat protein [3]: 54.1 nM
GGUUGGCGAGGAUAUACAUGAGGAUCACCCAUGUGAGAGAAAUAAGUGAGGAAGAAAAGUAGAAGGCGCUGACG [salish99_ex3_r3_014] (puzzle: Exclusion 3) |  |  | 59.4 | apparent KD of MS2 coat protein [2]: 222 nM; apparent KD of MS2 coat protein [3]: 79.2 nM
GGUUGGCGAGGAUAUACAUGAGGAUCACCCAUGUGAGAGUAAAAAGUGAGGAAGAAAAGUAGAAGGCGCUGACG [salish99_ex3_r3_011] (puzzle: Exclusion 3) |  |  | 36.3 | apparent KD of MS2 coat protein [2]: 68.6 nM; apparent KD of MS2 coat protein [3]: 44 nM
GGUUGGCGAGGAUAUACAUGAGGAUCACCCAUGUGAUAGAAAAAAGUGAGGAAGAAAAGUAGAAGGCGCUGACG [salish99_ex3_r3_009] (puzzle: Exclusion 3) |  |  | 50.1 | apparent KD of MS2 coat protein [2]: 723 nM; apparent KD of MS2 coat protein [3]: 187 nM
GGUUGGCGAGGAUAUACAUGAGGAUCACCCAUGUGAUCCUAAGGCUGAUCAAGCCUAUGUAGAAGGCGCAAAUC [salish99_ex3_r4_009] (Eterna round: R97, puzzle: Exclusion 3) | 49.7 | 260 |  | 
GGUUGGCGAGGAUAUACAUGAGGAUCACCCAUGUGGUCCUAAGGCUGAUCAAGCCUAUGUAGAAGGCGCAAAUC [salish99_ex3_r4_010] (Eterna round: R97, puzzle: Exclusion 3) | 37.7 | 223 |  | 
GGUUGGCGAGGAUAUACAUGAGGAUCACCCAUGUGGUCCUGUGGCUGGUCUAAACUUUGUAGAAGGCGCGGGUC [salish99_ex3_r4_022] (Eterna round: R97, puzzle: Exclusion 3) | 84.9 | 78.1 |  | 
GUAAACGAAGAGGAUAUAUGAUAUCAAAGCUUCAUAGAAGGCUUCACAUGAGGAUCACCCAUGUGAUCUUCAAG [Mat - Exclusion 6 - JL Mod - D25] (Eterna round: R97, puzzle: Exclusion 6) | 354 | 71.5 |  | 
GUAAAGUGAGGAUAUGGUAAAUUAAUUAUUAAUUAAUUAAUCCAGAAGGCACAUGAGGAUCACCCAUGUAAUUG [Mat - Exclusion 4 - D86] (puzzle: Exclusion 4) |  |  | 22.2 | 
GUAACAUGCUGGUGAUCAUACAUGAGGAUCACCCAUGUAACAAGCUUUUUGUUCGUCUUAAUUUAAUUGAUUACUAG [Stov1/8-B2] (Eterna round: R97, puzzle: Sensor, turn-off variant 1) | 202 | 196 |  | 
GUAAUCUUAGGAUAUUUACGGGUCGACAUGAGGAUCACCCAUGUACCCACGUAGGCCUGAGAAGAAGGAAGAUGAC [EX5 C.24] (Eterna round: R97, puzzle: Exclusion 5) | 22.1 | 14.5 |  | 
GUACUACGAGGAUAUAUAUAAUGGGAAGCCCAGGCCAUUGCACAUGAGGAUCACCCAUGUAGAAGGCGUGGUCA [Eternabot (L2) Solution 28] (Eterna round: R97, puzzle: Exclusion 2) | 40.3 | 16.7 |  | 
GUACUGAGGCUUUGCUUUAGUCGUACAUGAGGAUCACCCAUGUAGGAUAUGGUAGGCUUUGCUUACCAGAAGGACAGAGUGAUC [JL EXNG3 1.22] (Eterna round: R96, puzzle: Exclusion NG 3) |  |  |  | apparent KD of MS2 coat protein [4]: 188 nM
GUAGAGUAAGGAUAUCGUGAAUAGGAUAGAAUGGUUAGAAACGAGAAGGUACAUGAGGAUCACCCAUGUAAUGU [Excluse me!!!! 17 - Jieux - Exclusion 4] (puzzle: Exclusion 4) |  |  | 20.8 | 
